The record followed here is EP4471048A1, “PEPTIDE INHIBITORS OF INTERLEUKIN-23 RECEPTOR” (Zealand Pharma A/S, priority 2023, dated 2024).

One may read the IC50 as the point on the concentration scale where inhibition reaches its midpoint. Read a high IC50 as lower potency.

*1 amine or outer side, *2 acyl side, *3 side chain or, on linkers, in order; H or OH if unused. Bridges are numbered along the chain shown (N, C = ends). [ ]: non-standard residue; d: D form. The star is where a group is joined. K(G) = Lys(Gly): lysine with a glycine on the side-chain amine, (2S)-2-amino-6-[(2-aminoacetyl)amino]hexanoic acid, O=C(CN[*:3])NCCCC[C@H](N[*:1])C(=O)[*:2]; γDab = iso-Dab: Dab joined to preceding residue by its side-chain amine, O=C([C@H](CCN[*:1])N[*:3])[*:2]; 2‑Amino‑6‑carboxyhexanoyl = 2-aminoheptanedioic acid residue; NH(4-(3-pyridyl)butyl) = c1cncc(CCCCN*)c1; NH(2-(3-pyridyl)ethyl) = c1cncc(CCN*)c1; Phe(4-Me) = Cc1ccc(C[C@H](N)C(=O)O)cc1; 2Nal = N[C@@H](Cc1ccc2ccccc2c1)C(=O)O; AEF = NCCOc1ccc(C[C@H](N)C(=O)O)cc1; 3Pal = N[C@@H](Cc1cccnc1)C(=O)O; β3hE = N[C@@H](CCC(=O)O)CC(=O)O; αMeL = CC(C)C[C@](C)(N)C(=O)O; dDab = NCC[C@@H](N)C(=O)O; Orn = NCCC[C@H](N)C(=O)O; Dab = NCC[C@H](N)C(=O)O; βAla = NCCC(=O)O

T1: human IL-23R endogenously expressed on DB cells (human, UniProt Q5VWK5 24-629)
T1 sequence (looked up): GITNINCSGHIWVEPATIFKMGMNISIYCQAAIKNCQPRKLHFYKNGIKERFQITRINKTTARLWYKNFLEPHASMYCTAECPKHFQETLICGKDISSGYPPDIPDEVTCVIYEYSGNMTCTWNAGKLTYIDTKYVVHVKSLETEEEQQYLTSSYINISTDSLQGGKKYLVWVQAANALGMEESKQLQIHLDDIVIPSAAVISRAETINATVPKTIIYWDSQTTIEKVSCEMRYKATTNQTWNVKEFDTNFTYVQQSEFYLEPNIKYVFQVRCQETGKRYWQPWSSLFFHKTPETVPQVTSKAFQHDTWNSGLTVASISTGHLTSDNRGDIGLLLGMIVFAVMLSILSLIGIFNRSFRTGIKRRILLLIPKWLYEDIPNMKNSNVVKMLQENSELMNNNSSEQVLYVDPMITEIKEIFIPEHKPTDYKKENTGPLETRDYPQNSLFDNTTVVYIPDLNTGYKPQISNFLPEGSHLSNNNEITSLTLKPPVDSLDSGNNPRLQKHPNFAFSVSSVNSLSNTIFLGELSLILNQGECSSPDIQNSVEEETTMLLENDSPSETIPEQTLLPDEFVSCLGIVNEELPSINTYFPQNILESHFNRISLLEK

T2: Nluc-IL23R fusion protein (human, UniProt Q5VWK5 22-629)
T2 construct: range 22-629; Stably expressed in HEK293 cells; also called hIL-23R; human IL-23R; not shown: Nanoluc protein (N1371, Promega) at the N-terminus, after a secretion signal
T2 sequence (looked up): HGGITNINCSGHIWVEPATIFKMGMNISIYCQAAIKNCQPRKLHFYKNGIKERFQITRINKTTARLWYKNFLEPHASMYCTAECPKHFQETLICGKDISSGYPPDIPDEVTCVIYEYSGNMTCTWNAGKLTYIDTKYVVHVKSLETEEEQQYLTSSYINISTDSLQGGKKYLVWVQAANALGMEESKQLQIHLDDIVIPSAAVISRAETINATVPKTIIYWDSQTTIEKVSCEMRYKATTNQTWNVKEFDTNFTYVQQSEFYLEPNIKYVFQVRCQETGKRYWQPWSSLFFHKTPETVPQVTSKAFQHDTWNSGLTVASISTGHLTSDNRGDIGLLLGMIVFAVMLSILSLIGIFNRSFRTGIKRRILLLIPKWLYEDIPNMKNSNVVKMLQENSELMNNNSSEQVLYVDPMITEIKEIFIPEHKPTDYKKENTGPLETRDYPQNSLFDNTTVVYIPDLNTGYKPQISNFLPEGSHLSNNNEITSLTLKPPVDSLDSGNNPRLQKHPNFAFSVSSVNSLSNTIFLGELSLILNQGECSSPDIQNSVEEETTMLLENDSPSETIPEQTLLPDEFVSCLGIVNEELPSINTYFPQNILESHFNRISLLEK

B1: Compound 39 (peptide)
peptide: ETWQE[AEF][2Nal][αMeL]K[Dab][3Pal]-NHMe
modifications: lactam 1-9, N-5
SMILES: CNC(=O)[C@H](Cc1cccnc1)NC(=O)[C@H](CCN)NC(=O)[C@@H]1CCCCNC(=O)CC[C@@H]2NC(=O)CC[C@H](NC(=O)[C@H](CCC(N)=O)NC(=O)[C@H](Cc3c[nH]c4ccccc34)NC(=O)[C@H]([C@@H](C)O)NC2=O)C(=O)N[C@@H](Cc2ccc(OCCN)cc2)C(=O)N[C@@H](Cc2ccc3ccccc3c2)C(=O)N[C@@](C)(CC(C)C)C(=O)N1
B2: Compound 44 (peptide)
peptide: KGWQE[AEF][2Nal][αMeL]E[Dab][3Pal]-NHMe
modifications: lactam 1-9, N-5
SMILES: CNC(=O)[C@H](Cc1cccnc1)NC(=O)[C@H](CCN)NC(=O)[C@@H]1CCC(=O)NCCCC[C@@H]2NC(=O)CC[C@H](NC(=O)[C@H](CCC(N)=O)NC(=O)[C@H](Cc3c[nH]c4ccccc34)NC(=O)CNC2=O)C(=O)N[C@@H](Cc2ccc(OCCN)cc2)C(=O)N[C@@H](Cc2ccc3ccccc3c2)C(=O)N[C@@](C)(CC(C)C)C(=O)N1
B3: Compound 45 (peptide)
peptide: K[βAla]WQE[AEF][2Nal][αMeL]E[Dab][3Pal]-NHMe
modifications: lactam 1-9, N-5
SMILES: CNC(=O)[C@H](Cc1cccnc1)NC(=O)[C@H](CCN)NC(=O)[C@@H]1CCC(=O)NCCCC[C@@H]2NC(=O)CC[C@H](NC(=O)[C@H](CCC(N)=O)NC(=O)[C@H](Cc3c[nH]c4ccccc34)NC(=O)CCNC2=O)C(=O)N[C@@H](Cc2ccc(OCCN)cc2)C(=O)N[C@@H](Cc2ccc3ccccc3c2)C(=O)N[C@@](C)(CC(C)C)C(=O)N1
B4: Compound 46 (peptide)
peptide: [K(G)]WQE[AEF][2Nal][αMeL]E[Dab][3Pal]-NHMe
modifications: lactam 1-8, N-4
SMILES: CNC(=O)[C@H](Cc1cccnc1)NC(=O)[C@H](CCN)NC(=O)[C@@H]1CCC(=O)NCC(=O)NCCCC[C@@H]2NC(=O)CC[C@H](NC(=O)[C@H](CCC(N)=O)NC(=O)[C@H](Cc3c[nH]c4ccccc34)NC2=O)C(=O)N[C@@H](Cc2ccc(OCCN)cc2)C(=O)N[C@@H](Cc2ccc3ccccc3c2)C(=O)N[C@@](C)(CC(C)C)C(=O)N1
B5: Compound 2 (peptide)
peptide: KTVWQE[AEF][2Nal][αMeL]E[Dab][3Pal]-NH2
modifications: lactam 1-10, N-6
SMILES: CC(C)C[C@]1(C)NC(=O)[C@H](Cc2ccc3ccccc3c2)NC(=O)[C@H](Cc2ccc(OCCN)cc2)NC(=O)[C@@H]2CCC(=O)N[C@@H](CCCCNC(=O)CC[C@@H](C(=O)N[C@@H](CCN)C(=O)N[C@@H](Cc3cccnc3)C(N)=O)NC1=O)C(=O)N[C@@H]([C@@H](C)O)C(=O)N[C@@H](C(C)C)C(=O)N[C@@H](Cc1c[nH]c3ccccc13)C(=O)N[C@@H](CCC(N)=O)C(=O)N2
B6: Compound 3 (peptide)
peptide: [dK]TVWQD[AEF][2Nal][αMeL]E[Dab][3Pal]-NH2
modifications: lactam 1-10, N-6
SMILES: CC(C)C[C@]1(C)NC(=O)[C@H](Cc2ccc3ccccc3c2)NC(=O)[C@H](Cc2ccc(OCCN)cc2)NC(=O)[C@@H]2CC(=O)N[C@H](CCCCNC(=O)CC[C@@H](C(=O)N[C@@H](CCN)C(=O)N[C@@H](Cc3cccnc3)C(N)=O)NC1=O)C(=O)N[C@@H]([C@@H](C)O)C(=O)N[C@@H](C(C)C)C(=O)N[C@@H](Cc1c[nH]c3ccccc13)C(=O)N[C@@H](CCC(N)=O)C(=O)N2
B7: Compound 36 (peptide)
peptide: KTWQE[AEF][2Nal][αMeL]E[Dab][3Pal]-NHMe
modifications: lactam 1-9, N-5
SMILES: CNC(=O)[C@H](Cc1cccnc1)NC(=O)[C@H](CCN)NC(=O)[C@@H]1CCC(=O)NCCCC[C@@H]2NC(=O)CC[C@H](NC(=O)[C@H](CCC(N)=O)NC(=O)[C@H](Cc3c[nH]c4ccccc34)NC(=O)[C@H]([C@@H](C)O)NC2=O)C(=O)N[C@@H](Cc2ccc(OCCN)cc2)C(=O)N[C@@H](Cc2ccc3ccccc3c2)C(=O)N[C@@](C)(CC(C)C)C(=O)N1
B8: Compound 25 (peptide)
peptide: KTVWQE[Phe(4-Me)][2Nal][αMeL][γDab](6‑(3-pyridyl)hexanoyl)
modifications: lactam 1-C, N-6; also: iso-Dab joined to preceding residue via its side-chain amine
B9: Compound 74 (peptide)
peptide: EIVWQEXXXXXX
modifications: E(1c)(6c)^†IVWQE(6c)[Y(2-aminoethoxy)][2-Nal][2-Me-Leu][K(Me)](1c)[Dab][3-(3-Pyridyl)-Ala]-[NHMe]; (1c) [2,11] lactam; (6c) [2,7] lactam; ^† alpha-amine in bridge
B10: Compound 107 (peptide)
peptide: EWQEXXXXXX
modifications: [iso-Glu](1c)^‡(6c)^†WQE(6c)[Y(2-aminoethoxy)][2-Nal][2-Me-Leu][Dab](1c)[Dab][3-(3-Pyridyl)-Ala]-[NHMe]; (1c) [2,11] lactam; (6c) [2,7] lactam; ^† alpha-amine in bridge; ^‡ alpha-carboxylic acid in bridge
B11: Compound 61 (peptide)
peptide: KIVWQE[AEF][2Nal][αMeL][β3hE][3Pal]-NHMe
modifications: lactam 1-10, N-6
notes: The partner of the (1c) bridge is printed as (cyclo1)
B12: Compound 31 (peptide)
peptide: KSVWQE[AEF][2Nal]GE-{NH(4-(3-pyridyl)butyl)}
modifications: lactam 1-10, N-6
SMILES: CC(C)[C@@H]1NC(=O)[C@H](CO)NC(=O)[C@@H]2CCCCNC(=O)CC[C@@H](C(=O)NCCCCc3cccnc3)NC(=O)CNC(=O)[C@H](Cc3ccc4ccccc4c3)NC(=O)[C@H](Cc3ccc(OCCN)cc3)NC(=O)[C@H](CCC(=O)N2)NC(=O)[C@H](CCC(N)=O)NC(=O)[C@H](Cc2c[nH]c3ccccc23)NC1=O

The target in the first test is T1, human IL-23R endogenously expressed on …. Kind of test: cell-based or functional assay.
Regarding B1, the “hIL-23 (pSTAT3) antagonist % inhibition” value turned out to be 99% and the “hIL-23 (pSTAT3) antagonist IC50” value is 2.4 nM.

As for B2, the “hIL-23 (pSTAT3) antagonist % inhibition” value amounted to 100% and the “hIL-23 (pSTAT3) antagonist IC50” value was found to be 15 nM.

With [dDab]TVWQE[AEF][2Nal][αMeL][2‑Amino‑6‑carboxyhexanoyl][Dab][3Pal]-NH2 (lactam 1-10, N-6) [Compound 7], the “hIL-23 (pSTAT3) antagonist % inhibition” value was 99% and the “hIL-23 (pSTAT3) antagonist IC50” value stood at 0.19 nM.

As to B3, the “hIL-23 (pSTAT3) antagonist % inhibition” value amounted to 100% and the “hIL-23 (pSTAT3) antagonist IC50” value was found to be 58 pM.

As to B4, the “hIL-23 (pSTAT3) antagonist % inhibition” value was determined as 102% and the “hIL-23 (pSTAT3) antagonist IC50” value worked out at 25 nM.

On to B5, for which the “hIL-23 (pSTAT3) antagonist % inhibition” value came out at 99% and the “hIL-23 (pSTAT3) antagonist IC50” value came out at 0.11 nM.

Turning to B6, the “hIL-23 (pSTAT3) antagonist % inhibition” value amounted to 101% and the “hIL-23 (pSTAT3) antagonist IC50” value amounted to 1.5 nM.

Regarding B7, the “hIL-23 (pSTAT3) antagonist % inhibition” value amounted to 97% and the “hIL-23 (pSTAT3) antagonist IC50” value was 1.1 nM.

The target in a further test is T2, Nluc-IL23R fusion protein. Kind of test: BRET competition vs TAMRA-labelled peptide, Nluc-IL23R membranes. A general note: BRET reads energy transfer from a luciferase to a nearby fluorophore.
For the molecule B1, the % displacement was found to be 98%.

With B2, the % displacement turned out to be 100%.

Consider B3, for which the % displacement came out at 100%.

As for B4, the % displacement was 104%.

B5 gave a % displacement of 100%.

Consider B6, for which the % displacement is 105%.

In turn, B7 registered a % displacement of 100%.

The target of another test is T2, Nluc-IL23R fusion protein. The description is as above. This is another data set of the same source.
With [dDab]TVWQD[AEF][2Nal][αMeL][2‑Amino‑6‑carboxyhexanoyl][Dab][3Pal]-NH2 (lactam 1-10, N-6) [Compound 9], the “% displacement” value is 103%.

B8: the “% displacement” value turned out to be 91% and the IC50 was found to be 840 nM.

For B9, the “% displacement” value was 99% and the IC50 was found to be 0.076 nM.

In the case of B10, the “% displacement” value was determined as 97% and the IC50 turned out to be 14 nM.

Consider B11, for which the “% displacement” value was 99%.

Take [dDab]TVWQE[AEF][2Nal][αMeL][2‑Amino‑6‑carboxyhexanoyl][Dab][3Pal]-NH2 (lactam 1-10, N-6) [Compound 7]: the “% displacement” value came out at 104%.

In the case of [dDab]TWQD[AEF][2Nal][αMeL][2‑Amino‑6‑carboxyhexanoyl][Dab][3Pal]-NH2 (lactam 1-9, N-5) [Compound 15], the “% displacement” value was 105% and the IC50 was found to be 4.9 nM.

Consider B12, for which the “% displacement” value turned out to be 98% and the IC50 worked out at 49 nM.

In the case of ETWQE[AEF][2Nal][αMeL][Orn][Dab][3Pal]-NHMe (lactam 1-9, N-5) [Compound 40], the “% displacement” value came out at 100%.

For the molecule KIVWQE[AEF][2Nal][αMeL][β3hE]-{NH(2-(3-pyridyl)ethyl)} (lactam 1-10, N-6) [Compound 65], the “% displacement” value turned out to be 99%.
